Results on one molecule are retold here after US20040018515A1, “Compositions selective for adenosine diphosphate and methods of using same” (priority 2002, published 2004).

Data set [1] can be described thus: ADP SPA screening of ADP aptamer clones. It counts as binding. The following applies: 1 μM 3H-ADP; vs. clone R0; FIG. 27. Here is the method: Mini-prepped plasmid DNA and corresponding sequence (Table 4) were obtained from Lark Technologies. Any sequence that differed by more than two nucleotides from all other ADP aptamer clones was considered to be unique for the purposes of screening. “Unique” clones were PCR amplified from purified plasmid DNA using the original 5′-primer used in the selections (JD18.25B; SEQ ID NO: 17) and a new 3′-primer, 5′-[…]-3′ (JD18.122.A; 200 nM scale, 46-mer) Tm ˜58° C.; SEQ ID NO: 72). This primer adds a 3′-sequence tag to the transcribed RNA molecules which allows the aptamer clones to be immobilized onto the surface of an NEN streptavidin coated flash plate via base pairing with a biotinylated DNA capture oligo (MK08.112A; 5′-biotin-[…]-3′; SEQ ID NO: 73).
NEN flashplates used in the ADP SPA screen and competition binding studies were prepared by incubating the individual wells with 40 pmol of MK08.112A biotinylated capture probe in 22 μl of PBS Buffer: BupH (0.05% tRNA, 0.025% Tween 20) with and shaking at 650 RPM, 15 min. […] Treated wells were incubated with 30 μl of 1 μM ^3H-ADP in 1× Selection Buffer for 30 s with shaking at 650 RPM and then assessed for ADP-mediated signal by quantification on a TopCount, ^3H SPA scintillation counter.
Clones were initially assessed for the ability to yield ADP-mediated signal in the ADP SPA.

Data set [2] can be described thus: SPA competitive binding of ADP aptamer clones (cold ADP vs other adenosine nucleoside derivatives). The conditions noted are these: competitive binding analysis; FIG. 29. On the procedure: NEN flashplates used in the ADP SPA screen and competition binding studies were prepared by incubating the individual wells with 40 pmol of MK08.112A biotinylated capture probe in 22 μl of PBS Buffer: BupH (0.05% tRNA, 0.025% Tween 20) with and shaking at 650 RPM, 15 min. Excess capture probe was removed from the wells by washing with 1×PBS 3 times and inverting plate with force to remove liquid and blotting them dry on paper towels. Crude transcription of RNA transcribed with capture probe sequence (5 μl) in 25 μl 1×PBS was incubated in designated wells with shaking at 650 RPM for 30 min. Excess aptamer was removed by washing with 1×PBS 3 times and blotting as before. Treated wells were incubated with 30 μl of 1 μM ^3H-ADP in 1× Selection Buffer for 30 s with shaking at 650 RPM and then assessed for ADP-mediated signal by quantification on a TopCount, ^3H SPA scintillation counter.
The best ADP binders, e.g., clones 1, 2, 11, 12, 14, and 16 were subsequently tested for ADP/ATP discrimination by competition with either cold ADP or ATP (FIG. 28). Clones such as F01 (clone #11), whose SPA signal was competed off with the lowest concentration of ADP, i.e., the best ADP binder, and correspondingly the highest concentration of ATP, i.e., the worst ATP binder, were considered to be ADP selective.

A short description of data set [3]: SPA KD determination for ADP aptamer F01, ATP. It counts as binding. On the procedure:
(§1) The specificity of the ADP aptamer clone F01 was characterized using a variety of nucleoside analogues and mimetics as shown in FIG. 30. NEN flashplates used in the ADP assay were prepared as described above using 150 pmol ADP clone F01 ( in 20 μl 1×PBS incubated in designated wells with shaking at 650 RPM for 30 min). Excess F01 aptamer was removed by washing with 1×PBS 3-times and blotting as before. Treated wells were incubated with 30 μl of 1 μM ^3H-ADP in 1× Selection Buffer for 30 s with shaking at 650 RPM and then assessed for ADP-mediated signal by quantification on a TopCount, ^3H SPA scintillation counter. Thereafter, 1 μl of each test compound was added to the appropriate wells and the plate shaken at 650 RPM for 30 s prior to recounting on TopCount, ^3H SPA scintillation counter. Titration of each test compound was continued with subsequent 1 μl additions up to 10 mM final concentration. The dissociation constant KD was estimated from the IC50 of the competitive binding curve.
This impurity confounds precise determination of ADP aptamer selectivity by SPA competition.

The nature of data set [4]: SPA KD determination for ADP aptamer F01, nucleoside analogs and mimetics. Type of data set: binding. The following applies: SPA competition; KD estimated from IC50; FIG. 30. Here is the method: as §1

B1: GGACGGATCGCGTGATGACGAGGGGAATGAACACCCCGGACAATCAGACACGGTCATCTCACACACCTCCCTGA (nucleic acid)
chain: GGACGGATCGCGTGATGACGAGGGGAATGAACACCCCGGACAATCAGACACGGTCATCTCACACACCTCCCTGA
modifications: RNA, all phosphodiester, T or U not given here
For B1, the “ADP-mediated signal in the SPA screening assay above background signal” value in data set [1] is recorded as “more than 2.5 fold”. Further, the “selectivity for ADP compared to other adenosine nucleoside derivatives (AMP, ATP, cAMP)” value in data set [2] is recorded as “highly selective for ADP”. For the same molecule, the “KD for ATP relative to KD for ADP” value in data set [3] (SPA competition, KD estimated from IC50) is “at least 70 fold”. For the same molecule, the “selectivity for ADP over ATP relative to what preliminary studies indicated” value in data set [3] (after column purification of ATP) was “approximately 4 fold”. For the same molecule, in data set [4], the “KD values of other nucleoside derivatives and mimetics relative to KD for ADP” value is recorded as “more than 300 fold”.
